Test results from US20200299408A1 (Genentech, published 2020).
Several values for one entry are separate records, joined by “and”; a condition that tells them apart may be missing. Identical values can stand only once. One block for each binder: values may come before it.

Assays:
human HER2 on cells [1] = target: T1, human HER2 on cells (human, UniProt P04626 23-1255); test: cell-based or functional assay
[2] = target: T2, HER2 extracellular domain (ECD) (UniProt P04626 23-652, limits assumed); test: HER2 KD relative to 4D5 (WT); assay not stated
T2 construct: extracellular domain; also called soluble HER2 extracellular domain; HER2 ECD

[3] = target: T2, HER2 extracellular domain (ECD); test: HER2 binding affinity of the HER2 arm; assay and form of HER2 not stated on the sheet or in the legend
[4] = target: T3, single chain human CD3ε-26mer-CD3γ (CD3εγ) (human); test: Biacore, human CD3εγ on chip, antibody in flow-through
T3 construct: also called human CD3εγ
T3 chain: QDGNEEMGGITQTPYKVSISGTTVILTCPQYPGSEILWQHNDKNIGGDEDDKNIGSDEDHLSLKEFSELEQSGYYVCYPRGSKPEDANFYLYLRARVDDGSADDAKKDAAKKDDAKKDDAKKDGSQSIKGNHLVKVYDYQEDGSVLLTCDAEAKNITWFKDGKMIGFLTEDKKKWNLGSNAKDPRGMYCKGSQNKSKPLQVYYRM

cyCD3εγ = target: T4, cyCD3εγ (cynomolgus monkey); test: monovalent binding affinity, method not stated on the sheet
T4 chain 1: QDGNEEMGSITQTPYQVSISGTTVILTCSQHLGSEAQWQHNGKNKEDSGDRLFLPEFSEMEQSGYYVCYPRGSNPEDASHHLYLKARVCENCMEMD
T4 chain 2: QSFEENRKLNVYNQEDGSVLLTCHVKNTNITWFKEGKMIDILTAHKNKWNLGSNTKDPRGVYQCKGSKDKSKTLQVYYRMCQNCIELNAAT

[5] = target: T3, single chain human CD3ε-26mer-CD3γ …; test: monovalent binding affinity, method not stated on the sheet; column huCD3εγ
[6] = target: T3, single chain human CD3ε-26mer-CD3γ …; test: Biacore, monovalent KD of the CD3 arm; CD3 antigen not named on the sheet (reactivity hu, cyno)
G3A = target: T5, G3A; test: phage ELISA: anti-CD3 antibody coated on the plate, dilution series of M13 phage displaying the CD3εγ variant, anti-M13-HRP, OD A450; [phage] axis 10^-3 to 10^0 without unit
T5 construct: Residue number counts from the N-terminus of CD3ε; also called CD3εγ G3A; CD3 mutant G3A
T5 single chain CD3ε-26mer linker-CD3γ: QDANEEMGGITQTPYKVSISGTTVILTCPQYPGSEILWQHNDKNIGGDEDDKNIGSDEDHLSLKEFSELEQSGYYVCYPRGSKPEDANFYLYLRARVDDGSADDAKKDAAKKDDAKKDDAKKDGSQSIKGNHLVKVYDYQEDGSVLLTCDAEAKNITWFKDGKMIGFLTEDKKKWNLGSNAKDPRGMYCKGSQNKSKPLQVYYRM
Protocol: (§1) This CD3εγ phagemid was used as a template for making single alanine mutations in CD3ε by Kunkel mutagenesis. […] The effect of alanine mutation in CD3εγ on anti-CD3 antibody binding was assessed using a phage ELISA. Each anti-CD3 antibody was immobilized on a NUNC maxisorp plate at 2 μg/ml in PBS buffer overnight at 4° C. Purified phage supernatant displaying a CD3εγ alanine variant (1.0 OD₄₅₀) was added to the plate and allowed to bind at room temperature with shaking for 1 h. After washing, bound phage was detected with anti-M13-HRP (GE Healthcare cat #45-001-419).

N4A = target: T6, N4A; test: as above
T6 construct: Residue number counts from the N-terminus of CD3ε; also called CD3εγ N4A; CD3 mutant N4A
T6 single chain CD3ε-26mer linker-CD3γ: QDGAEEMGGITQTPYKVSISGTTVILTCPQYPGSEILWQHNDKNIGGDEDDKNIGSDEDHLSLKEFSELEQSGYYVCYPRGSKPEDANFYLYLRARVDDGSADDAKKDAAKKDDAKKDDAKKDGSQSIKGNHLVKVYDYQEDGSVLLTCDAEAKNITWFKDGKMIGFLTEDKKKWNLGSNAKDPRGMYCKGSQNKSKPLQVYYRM
Protocol: as §1

E5A = target: T7, E5A; test: as above
T7 construct: Residue number counts from the N-terminus of CD3ε; also called CD3εγ E5A; CD3 mutant E5A
T7 single chain CD3ε-26mer linker-CD3γ: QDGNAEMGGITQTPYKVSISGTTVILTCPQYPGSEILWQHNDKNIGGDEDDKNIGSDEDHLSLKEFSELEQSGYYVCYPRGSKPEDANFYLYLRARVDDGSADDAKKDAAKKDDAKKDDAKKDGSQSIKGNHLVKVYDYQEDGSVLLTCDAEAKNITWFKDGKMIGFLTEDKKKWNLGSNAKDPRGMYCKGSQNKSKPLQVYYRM
Protocol: as §1

E6A = target: T8, E6A; test: as above
T8 construct: Residue number counts from the N-terminus of CD3ε; also called CD3εγ E6A; CD3 mutant E6A
T8 single chain CD3ε-26mer linker-CD3γ: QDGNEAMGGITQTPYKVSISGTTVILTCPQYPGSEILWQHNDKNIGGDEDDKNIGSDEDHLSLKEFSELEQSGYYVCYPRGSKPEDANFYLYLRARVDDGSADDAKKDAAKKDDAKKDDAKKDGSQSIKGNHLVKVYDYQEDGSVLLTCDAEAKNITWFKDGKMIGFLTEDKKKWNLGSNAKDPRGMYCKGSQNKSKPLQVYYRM
Protocol: as §1

[7] = target: T3, single chain human CD3ε-26mer-CD3γ …; test: Biacore, human CD3εγ on chip, TDB in flow through
human CD3 on T cells [8] = target: T9, human CD3 on T cells (human, UniProt P07766 22-207); test: FACS on Jurkat cells (CD3); EC50 table for the curves of FIGS. 21A-21B; source E. coli
T9 construct: whole, on cells; On cells CD3ε stands in the CD3/TCR complex; also called CD3 antigen; CD3ε
Protocol: (§2) Binding affinities for the each of the CD3/CD20 TDBs were tested by Biacore or FACS analysis, as described above for the anti-CD3 antibodies. Briefly, for Biacore binding assays, human CD3εγ was immobilized on Biacore Series S CM5 sensor chip using the amine coupling kit from Biacore and CD3/CD20 TDBs or Fab variants thereof were in the flow through. For FACS binding assays, either Bjab cells (for B cell antigens) or Jurkat cells (for CD3 antigen) were incubated with various concentrations of TDB antibodies at 4° C. for 30 minutes, then cells were washed and incubated with 2nd antibody (anti-huIgG-PE; BD Bioscience) for another 15 minutes, before cells were washed again and ready for FACS analysis.

human CD3 on T cells [9] = target: T9, human CD3 on T cells; test: FACS on Jurkat cells, anti-huIgG-PE, MFI/PE; panel 'Jurkat / CD3 arm'
human CD3 on T cells [10] = target: T9, human CD3 on T cells; test: FACS on Jurkat cells (CD3), anti-huIgG-PE; number printed beside the curve without a quantity name, taken as EC50
Protocol: as §2

human CD3 on T cells [11] = target: T9, human CD3 on T cells; test: as above; remark: listed apart in the source
Protocol: as §2

human CD3 on T cells [12] = target: T9, human CD3 on T cells; test: as above; remark: listed apart in the source
Protocol: as §2

human CD3 on T cells [13] = target: T9, human CD3 on T cells; test: Scatchard; table headed 'Bivalent Binding Affinity', though its footnote reads 'monovalent binding Kd measured by scatchard'; cells not named
human CD3 on T cells [14] = target: T9, human CD3 on T cells; test: Scatchard; table 'Monovalent Binding Affinity'; the partner arm is not given, the TDB is taken from legend paragraph 149, p-1410 and Figure 16; cells not named
human HER2 on cells [15] = target: T1, human HER2 on cells; test: KD (nM) box at the right of the FACS panels; method and antigen form are not stated on the sheet; taken as affinity of the HER2 arm, since the three TDBs differ only in it

B3: 40G5c Ecoli (bispecific antibody, V domains shown)
VH 1: EVQLVESGGGLVQPGGSLRLSCAASGYTFTSYNMHWVRQAPGKGLEWVGAIYPGNGDTSYNQKFKGRFTISVDKSKNTLYLQMNSLRAEDTAVYYCARVVYYSNSYWYFDVWGQGTLVTVSS
VL 1: DIQMTQSPSSLSASVGDRVTITCRASSSVSYMHWYQQKPGKAPKPLIYAPSNLASGVPSRFSGSGSGTDFTLTISSLQPEDFATYYCQQWSFNPPTFGQGTKVEIK
VH 2: EVQLVQSGAEVKKPGASVKVSCKASGYTFTNYYIHWVRQAPGQGLEWIGWIYPGDGNTKYNEKFKGRATLTADTSTSTAYLELSSLRSEDTAVYYCARDSYSNYYFDYWGQGTLVTVSS
VL 2: DIVMTQSPDSLAVSLGERATINCKSSQSLLNSRTRKNYLAWYQQKPGQPPKLLIYWASTRESGVPDRFSGSGSGTDFTLTISSLQAEDVAVYYCTQSFILRTFGQGTKVEIK
modifications: E. coli-produced (aglycosylated) full-length knob-into-hole IgG; constant regions are not in the letters.
notes: E. coli material, aglycosylated; also called CD3/CD20 TDB 2H7v16/40G5c produced in E. coli
- Kd [7]: 71.5 nM
- koff [7]: 0.0256 s⁻¹
- kon [7]: 358000 M⁻¹ s⁻¹
- EC50 (human CD3 on T cells [8]): 1.85 µg/mL and ~12 nM

B4: CD3/CD20 TDB 2H7v16/UCHT1v9 (bispecific antibody, human IgG1, V domains shown)
VH 1: EVQLVESGGGLVQPGGSLRLSCAASGYTFTSYNMHWVRQAPGKGLEWVGAIYPGNGDTSYNQKFKGRFTISVDKSKNTLYLQMNSLRAEDTAVYYCARVVYYSNSYWYFDVWGQGTLVTVSS
VL 1: DIQMTQSPSSLSASVGDRVTITCRASSSVSYMHWYQQKPGKAPKPLIYAPSNLASGVPSRFSGSGSGTDFTLTISSLQPEDFATYYCQQWSFNPPTFGQGTKVEIK
VH 2: EVQLVESGGGLVQPGGSLRLSCAASGYSFTGYTMNWVRQAPGKDLEWVALINPYKGVSTYNQKFKDRFTISVDKSKNTAYLQMNSLRAEDTAVYYCARSGYYGDSDWYFDVWGQGTLVTVSS
VL 2: DIQMTQSPSSLSASVGDRVTITCRASQDIRNYLNWYQQKPGKAPKLLIYYTSRLESGVPSRFSGSGSGTDYTLTISSLQPEDFATYYCQQGNTLPWTFGQGTKLELK
notes: also called TDB A
- EC50 (read off the curve) (human CD3 on T cells [9]): ~0.1 µg/mL
- EC50 (human CD3 on T cells [10]): 0.533 µg/mL
- EC50 (human CD3 on T cells [11]): 0.09 µg/mL and 0.6 nM
- EC50 (human CD3 on T cells [12]): 0.21 µg/mL and 1.4 nM
- Kd (human CD3 on T cells [13]): 3 nM
- Kd (human CD3 on T cells [14]): 4.2 nM

Further lines, with some results ahead:

- KD fold [2]: 120 fold
- Kd [3]: 60 nM
B1: hu4D5.Y100A (bispecific antibody, V domains shown)
VH 1: not shown
VL 1: not shown
VH 2: EVQLVQSGAEVKKPGASVKVSCKASGYTFTNYYIHWVRQAPGQGLEWIGWIYPGDGNTKYNEKFKGRATLTADTSTSTAYLELSSLRSEDTAVYYCARDSYSNYYFDYWGQGTLVTVSS
VL 2: DIVMTQSPDSLAVSLGERATINCKSSQSLLNSRTRKNYLAWYQQKPGQPPKLLIYWASTRESGVPDRFSGSGSGTDFTLTISSLQAEDVAVYYCTQSFILRTFGQGTKVEIK
notes: not the same molecule as m28, which has the UCHT1v9 arm; also called hu4D5.Y100A-40G5c HER2-TDB
- EC50 of SKBR3 target cell killing (human HER2 on cells [1]): > 10 µg/mL

- Kd [4]: 15 nM
- koff [4]: 0.0176 s⁻¹
- kon [4]: 1.2e+06 M⁻¹ s⁻¹
- Kd (cyCD3εγ): 14 nM
- Kd [5]: 12 nM
- Kd [6]: 51 nM
- binding result (G3A): binds
- binding result (N4A): binds
- binding result (E5A): binds
- binding result (E6A): binds
B2: anti-CD3 clone 40G5c (antibody, V domains shown)
VH: EVQLVQSGAEVKKPGASVKVSCKASGYTFTNYYIHWVRQAPGQGLEWIGWIYPGDGNTKYNEKFKGRATLTADTSTSTAYLELSSLRSEDTAVYYCARDSYSNYYFDYWGQGTLVTVSS
VL: DIVMTQSPDSLAVSLGERATINCKSSQSLLNSRTRKNYLAWYQQKPGQPPKLLIYWASTRESGVPDRFSGSGSGTDFTLTISSLQAEDVAVYYCTQSFILRTFGQGTKVEIK
notes: also called hu40G5c

- Kd (human HER2 on cells [15]): 190 nM
B5: hu4D5.Y100A/UCHT1v9 TDB (bispecific antibody, V domains shown)
VH 1: not shown
VL 1: not shown
VH 2: EVQLVESGGGLVQPGGSLRLSCAASGYSFTGYTMNWVRQAPGKDLEWVALINPYKGVSTYNQKFKDRFTISVDKSKNTAYLQMNSLRAEDTAVYYCARSGYYGDSDWYFDVWGQGTLVTVSS
VL 2: DIQMTQSPSSLSASVGDRVTITCRASQDIRNYLNWYQQKPGKAPKLLIYYTSRLESGVPSRFSGSGSGTDYTLTISSLQPEDFATYYCQQGNTLPWTFGQGTKLELK
notes: also called hu4D5.Y100A-TDB
